Source: paper PMC7807878, “Development of an engineered peptide antagonist against periostin to overcome doxorubicin resistance in breast cancer” (BMC Cancer, 2021)

Target: T1, recombinant PN (rPN) (UniProt Q15063 22-836)
T1 construct: periostin (PN), recombinant, bought; also called periostin; source: bought: BioVendor (RD172045025)
T1 sequence (looked up): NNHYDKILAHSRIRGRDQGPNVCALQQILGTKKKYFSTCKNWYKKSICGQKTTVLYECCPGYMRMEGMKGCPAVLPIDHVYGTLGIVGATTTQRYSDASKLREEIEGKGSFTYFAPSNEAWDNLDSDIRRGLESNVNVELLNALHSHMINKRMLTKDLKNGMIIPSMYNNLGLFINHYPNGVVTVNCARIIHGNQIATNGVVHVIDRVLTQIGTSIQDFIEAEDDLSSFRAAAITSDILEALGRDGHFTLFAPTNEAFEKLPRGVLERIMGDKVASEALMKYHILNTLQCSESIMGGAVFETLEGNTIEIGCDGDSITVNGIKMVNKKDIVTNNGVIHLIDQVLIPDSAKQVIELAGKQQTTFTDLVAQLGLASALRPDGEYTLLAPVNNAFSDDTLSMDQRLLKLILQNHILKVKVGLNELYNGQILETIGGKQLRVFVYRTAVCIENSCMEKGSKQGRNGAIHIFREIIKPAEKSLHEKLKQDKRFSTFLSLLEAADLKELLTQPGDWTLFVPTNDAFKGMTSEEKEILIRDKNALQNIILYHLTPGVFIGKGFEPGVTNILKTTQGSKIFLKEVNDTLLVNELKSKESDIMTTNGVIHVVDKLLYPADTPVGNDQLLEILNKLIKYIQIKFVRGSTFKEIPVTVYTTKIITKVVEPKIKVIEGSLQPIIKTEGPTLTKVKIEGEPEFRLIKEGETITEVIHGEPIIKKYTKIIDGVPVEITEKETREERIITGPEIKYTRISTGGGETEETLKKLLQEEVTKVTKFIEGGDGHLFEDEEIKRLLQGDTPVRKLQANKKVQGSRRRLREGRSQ
Assay: ITC; MicroCal PEAQ-ITC; 700 nM rPN (or BSA) and 100 nM plain anti-PN peptide in 50 mM Tris, 150 mM NaCl, pH 7.5, in syringe and cell compartments
Settings: both partners purified

Kd: 1 pM
B1: plain anti-PN peptide (peptide)
peptide: TFATHGKHWAAP
notes: The methods mention C-terminal amidation after describing the FITC-labelled form; it is not clear whether the plain peptide is amidated too; also called candidate anti-PN peptide; source: synthetic peptide (ordered from Syn Peptide company, Shanghai)
